Measurements from the supplement of paper PMC9170038.

System: MS2 coat protein
Assay: apparent KD of MS2 coat protein; designed switch direction (-1 OFF switch, 1 ON switch): -1; higher = weaker reporter binding
Outline: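 Transcription of designed RNA switches on Illumina chips was done by stalled E. coli RNA polymerase. SNAP-549-labelled MS2 coat protein was then titrated in doubling steps from 0.7 or 1.5 nM to 3 µM, with steps of 0.8–1.5 h at the lowest and 10–20 min at the highest concentration. The per-design median over clusters of curve-fitted normalised fluorescence is reported as apparent KD.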

[1] = input ligand: microRNA oligo, concentration not stated
[2] = Eterna round: R95, input ligand: microRNA oligo, concentration not stated
[3] = Eterna round: R95, input ligand: FMN 200 uM
[4] = Eterna round: R95, input ligand: none

Sequence | apparent KD of MS2 coat protein (input ligand: FMN 200 uM) [nM] | apparent KD of MS2 coat protein (input ligand: none) [nM] | apparent KD of MS2 coat protein [2] [nM] | other results
AGAUCACAUGAGGAUCACCCAUGUCAGGAUAUCGUCACUGGAGCUGCGGCUCCAGUGACGAGAAGGGACAUAAU [E1/2-A3] (Eterna round: R97, puzzle: Exclusion 1) | 252 | 326 |  | 
CGUCGACAUGUAGGAUAUCUGCACGAUUAGUGCAGAGAAGGACAUGAGGAUCACCCAUGUAGAUCACGACGAAUUAAUUUAAUU [ENG1/6-C1] (Eterna round: R96, puzzle: Exclusion NG 1) | 476 | 527 |  | apparent KD of MS2 coat protein [1]: 298 nM
UUAUACGUUGAGGAUAUGCGAUUUAGUAUAGUUGUAGAAGGCGAUACAUGAGGAUCACCCAUGUUUAUGGGCAU [LRO-Ex6-08] (puzzle: Exclusion 6) |  |  | 268 | 
UACCGGCGGACCGAAGCUUUUUGCUUGUCUUAUACUACGACAUGAGGAUCACCCAUGUGGUGGUGGUCCGUUGUAGU [JL ViennaUCT Bitein mod 3] (puzzle: Sensor v3, turn-off variant 2) |  |  | 13.1 | apparent KD of MS2 coat protein [3]: 48.3 nM; apparent KD of MS2 coat protein [4]: 52.1 nM
GCUUGUAGAGGAUAUACAAGGGCCUUAGCGAAUAACACCGCACAUGAGGAUCACCCAUGUAGAAGGCUACCACC [Tezausesti] (puzzle: Exclusion 2) |  |  | 15.2 | 
ACUUAUUGAGGAUAUACAUAAAUUUACAUGAGGAUCACCCAUGUUCUUCUAUGUAUAUAUGUAGAAGGCAGAAGAU [Mat - Exclusion 5 - JL Mod - D32] (Eterna round: R97, puzzle: Exclusion 5) | 29.2 | 19.3 |  | 
ACAAGCUUUUAGAUUCUUAACAUGAGGAUCACCCAUGUGCUCGUCUUAUUGGCCGGCCGGCCGCCGGCCGGCCGGCC (Eterna round: R97, puzzle: Sensor, turn-off variant 1) | 43.6 | 40.9 |  | 
UUCCUACAUGAGGAUCACCCAUGUCAGGAUAUCUCCUCACUGCGCUUGCGCAGUGAAUAGAGAAGGGACAGGCU [JL ViennaUCT Aner mod 1] (puzzle: Exclusion 1) |  |  | 15.9 | 
GUUUCACAUGAGGAUCACCCAUGUGAGGAUAUGGAUUCGCUGGCCGUAGCCAGUGGAUCCAGAAGGCGCGUGAU [JL-ex1-4.21] (Eterna round: R97, puzzle: Exclusion 1) | 60.5 | 61.7 |  | 
CGAUGCUCGUGCCCACAUGAGGAUCACCCAUGUCGAGUCAGCGAGGAUAUCGGUGGCACAUAGUACGAGAAGGCGCGGACCUGA [Ex NG3 #18] (Eterna round: R96, puzzle: Exclusion NG 3) | 17.7 | 17 |  | apparent KD of MS2 coat protein [1]: 11.5 nM
GGUUUCGUAGGAUAUCAUCGAGUAAACAUGAGGAUCACCCAUGUGAGGUCGGCUUGCUCUUGAGAAGGAUGAAUGG [EX5 B.13] (Eterna round: R97, puzzle: Exclusion 5) | 40.1 | 34 |  | 
GGGUGCAGGCUGGGAUCCUACAUGAGGAUCACCCAUGUGGUCCGGUGACGUGAGUCACCGGACUUAGCUCGUCUUGU [salish99_S_TOV1_R5_008] (Eterna round: R97, puzzle: Sensor, turn-off variant 1) | 569 | 865 |  | 
CAGUACUGAGGAUAUACAUGAGGAUCACCCAUGUGUCUAAGGUAGGAUACUACCAUUAGUAGAAGGCAGUACUG [Fiskers Ex 3 828 mod 19] (puzzle: Exclusion 3) |  |  | 13.2 | 
AUCAGCUCGUGAGGAUAUAUUAACAUGAGGAUCACCCAUGUAAGAUCAGGCUUCGGCCAAUGUUAAUAGAAGGCACGAGCUGAU [ENG2/12-A2] (Eterna round: R96, puzzle: Exclusion NG 2) | 239 | 170 |  | apparent KD of MS2 coat protein [1]: 56.3 nM
CUGGUGUGAGGAUAUCAGGACACGCCCGAGGGCGUGUCAAAUGAGAAGGCACAUGAGGAUCACCCAUGUGGGAC [Atisrage] (puzzle: Exclusion 4) |  |  | 39.8 | 
CAGUACUGAGGAUAUACAUGAGGAUCACCCAUGUGUUCCAGCUAGGAGACUAGCAAAUGUAGAAGGCAGUACUG [jl-ex3-4.02 salish99 mod] (Eterna round: R97, puzzle: Exclusion 3) | 615 | 406 |  | 
GACUGCCGAGGAUAUACAUGAGGAUCACCCAUGUGCUUCAGCAUUUUUUAAUGCAUGGGUAGAAGGCGGUAGUU [LRO-Excl3-14] (puzzle: Exclusion 3) |  |  | 31.5 | 
GUUAAACAUGAGGAUCACCCAUGUAAGGAUAUGCUGCGGUCGAGAUGAAGUGACUGCAGCAGAAGGUACAAAUG [Mat - Mod of JL D60] (puzzle: Exclusion 1) |  |  | 127 | apparent KD of MS2 coat protein [3]: 162 nM; apparent KD of MS2 coat protein [4]: 133 nM
CUUCACGGAGGAUAUGCGGGCUGCGACAUGAGGAUCACCCAUGUUUAUGGAGCUUGGCAUGCAGAAGGCCGGGAGC [Eternabot (L2) Solution 19] (Eterna round: R97, puzzle: Exclusion 5) | 9.81 | 10.6 |  | 
UGUGUGAGACAGGAUAUGCCGGAUGAAAUGCAGGUAGAAGGGUCUACAUGAGGAUCACCCAUGUGGCCGGUUGG [Ex6 #75] (Eterna round: R97, puzzle: Exclusion 6) | 18.9 | 15.1 |  | 
AGAAGAAAAGAGAUUUGCUCGUCUUAUAAGUAUGAAGUAACAUGAGGAUCACCCAUGUAAGUCUAGUGAGAAGGAAG [JR_SV3TOV2_Sub001] (puzzle: Sensor v3, turn-off variant 2) |  |  | 50 | apparent KD of MS2 coat protein [3]: 22.9 nM; apparent KD of MS2 coat protein [4]: 24.4 nM
GUUUGACAUGAGGAUCACCCAUGUAAGGAUAUACGAGUAGAUACUAGAUAGUUAGUAUGUAGAAGGUACGUGUU [EX1 #64] (Eterna round: R97, puzzle: Exclusion 1) | 34.6 | 43.5 |  | 
CGAUGUUAUGUCAGGAUAUGCAUUGCGAAAGCAAUGCAGAAGGGACAUGAGGAUCACCCAUGUCCUAACCAUCG [Omei A 4] (puzzle: Brourd's mod of Exclusion 4) |  |  | 11.1 | 
UAUUCACAAGCGAGAUCCCACAUGAGGAUCACCCAUGUGCUCGUCUUAUAAGGUACUGUGACGAUAGUCACGGUACC [Mat - Sensor, turn-off var - Eli Mod - D86] (Eterna round: R97, puzzle: Sensor, turn-off variant 1) | 17.4 | 15 |  | 
UUAUACAAGCAAAGAUCCCACAUGAGGAUCACCCAUGUGCUCGUCUUAUAAGGUACUGUGACGAUAGUCACGGUACC [Mat - Sensor, turn-off var - Eli Mod - D102] (Eterna round: R97, puzzle: Sensor, turn-off variant 1) | 38.3 | 49.9 |  | 
